Assay results published in patent US11833164B2, “Methods of treating Fabry disease in patients having a mutation in the GLA gene” (Amicus Therapeutics, Inc., priority 2019, dated 2023).

Tested on: mutant form of α-Gal A expressed in HEK-293 cells
Test: HEK assay (GLP HEK / Migalastat Amenability Assay): α-Gal A activity in lysates of transiently transfected HEK-293 cells incubated with or without 10 μM migalastat
Assay type: cell-based, human
Settings: for Absolute increase (% WT) / Relative increase: 10 μM migalastat versus baseline; for Baseline α-Gal A activity (% WT): absence of migalastat; for Baseline α-Gal A activity (% WT) / 10 μM migalastat α-Gal A activity (% WT): percentage of baseline wild-type α-Gal A activity; for Baseline α-Gal A activity (% WT) / Baseline α-Gal A activity / 10 μM migalastat α-Gal A activity / 10 μM migalastat α-Gal A activity (% WT): mean ± SEM; for Baseline α-Gal A activity / 10 μM migalastat α-Gal A activity: lysates of HEK-293 cells transiently transfected with the mutant form; for Baseline α-Gal A activity: incubated 5 days in absence of migalastat; for 10 μM migalastat α-Gal A activity: incubated 5 days with 10 μM migalastat; for 10 μM migalastat α-Gal A activity (% WT): with 10 μM migalastat, 5 days
Method in brief: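 Activity reported as 4-MU released (nmol/mg/hr), mean±SEM, from lysates of transiently transfected HEK-293 cells expressing mutant α-Gal A, cultured with or without 10 μM migalastat.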

B1: N336S (protein)
chain: MQLRNPELHLGCALALRFLALVSWDIPGARALDNGLARTPTMGWLHWERFMCNLDCQEEPDSCISEKLFMEMAELMVSEGWKDAGYEYLCIDDCWMAPQRDSEGRLQADPQRFPHGIRQLANYVHSKGLKLGIYADVGNKTCAGFPGSFGYYDIDAQTFADWGVDLLKFDGCYCDSLENLADGYKHMSLALNRTGRSIVYSCEWPLYMWPFQKPNYTEIRQYCNHWRNFADIDDSWKSIKSILDWTSFNQERIVDVAGPGGWNDPDMLVIGNFGLSWNQQVTQMALWAIMAAPLFMSNDLRHISPQAKALLQDKDVIAINQDPLGKQGYQLRQGDSFEVWERPLSGLAWAVAMINRQEIGGPRSYTIAVASLGKGVACNPACFITQLLPVKRKLGFYEWTSRLRSHINPTGTVLLQLENTMQMSLKDLL
- Absolute increase (% WT): 18.7 % WT
- Relative increase: 1.2
- Baseline α-Gal A activity (% WT): 79.7 ± 3.8 % WT
- Baseline α-Gal A activity: 32974 ± 2396 nmol/mg/h
- 10 μM migalastat α-Gal A activity: 40651 ± 2487 nmol/mg/h
- 10 μM migalastat α-Gal A activity (% WT): 98.4 ± 3.1 % WT

B2: F337C (protein)
chain: MQLRNPELHLGCALALRFLALVSWDIPGARALDNGLARTPTMGWLHWERFMCNLDCQEEPDSCISEKLFMEMAELMVSEGWKDAGYEYLCIDDCWMAPQRDSEGRLQADPQRFPHGIRQLANYVHSKGLKLGIYADVGNKTCAGFPGSFGYYDIDAQTFADWGVDLLKFDGCYCDSLENLADGYKHMSLALNRTGRSIVYSCEWPLYMWPFQKPNYTEIRQYCNHWRNFADIDDSWKSIKSILDWTSFNQERIVDVAGPGGWNDPDMLVIGNFGLSWNQQVTQMALWAIMAAPLFMSNDLRHISPQAKALLQDKDVIAINQDPLGKQGYQLRQGDNCEVWERPLSGLAWAVAMINRQEIGGPRSYTIAVASLGKGVACNPACFITQLLPVKRKLGFYEWTSRLRSHINPTGTVLLQLENTMQMSLKDLL
- Absolute increase (% WT): 19.0 % WT
- Relative increase: 1.9
- Baseline α-Gal A activity (% WT): 21.7 ± 0.8 % WT
- Baseline α-Gal A activity: 9557 ± 452 nmol/mg/h
- 10 μM migalastat α-Gal A activity: 17991 ± 960 nmol/mg/h
- 10 μM migalastat α-Gal A activity (% WT): 40.7 ± 1.6 % WT

B3: E338A (protein)
chain: MQLRNPELHLGCALALRFLALVSWDIPGARALDNGLARTPTMGWLHWERFMCNLDCQEEPDSCISEKLFMEMAELMVSEGWKDAGYEYLCIDDCWMAPQRDSEGRLQADPQRFPHGIRQLANYVHSKGLKLGIYADVGNKTCAGFPGSFGYYDIDAQTFADWGVDLLKFDGCYCDSLENLADGYKHMSLALNRTGRSIVYSCEWPLYMWPFQKPNYTEIRQYCNHWRNFADIDDSWKSIKSILDWTSFNQERIVDVAGPGGWNDPDMLVIGNFGLSWNQQVTQMALWAIMAAPLFMSNDLRHISPQAKALLQDKDVIAINQDPLGKQGYQLRQGDNFAVWERPLSGLAWAVAMINRQEIGGPRSYTIAVASLGKGVACNPACFITQLLPVKRKLGFYEWTSRLRSHINPTGTVLLQLENTMQMSLKDLL
- Absolute increase (% WT): 24.8 % WT
- Relative increase: 1.7
- Baseline α-Gal A activity (% WT): 39.5 ± 2.3 % WT
- Baseline α-Gal A activity: 15626 ± 769 nmol/mg/h
- 10 μM migalastat α-Gal A activity: 25719 ± 1376 nmol/mg/h
- 10 μM migalastat α-Gal A activity (% WT): 64.3 ± 3 % WT

B4: N336Y (protein)
chain: MQLRNPELHLGCALALRFLALVSWDIPGARALDNGLARTPTMGWLHWERFMCNLDCQEEPDSCISEKLFMEMAELMVSEGWKDAGYEYLCIDDCWMAPQRDSEGRLQADPQRFPHGIRQLANYVHSKGLKLGIYADVGNKTCAGFPGSFGYYDIDAQTFADWGVDLLKFDGCYCDSLENLADGYKHMSLALNRTGRSIVYSCEWPLYMWPFQKPNYTEIRQYCNHWRNFADIDDSWKSIKSILDWTSFNQERIVDVAGPGGWNDPDMLVIGNFGLSWNQQVTQMALWAIMAAPLFMSNDLRHISPQAKALLQDKDVIAINQDPLGKQGYQLRQGDYFEVWERPLSGLAWAVAMINRQEIGGPRSYTIAVASLGKGVACNPACFITQLLPVKRKLGFYEWTSRLRSHINPTGTVLLQLENTMQMSLKDLL
- Absolute increase (% WT): 16.6 % WT
- Relative increase: 1.3
- Baseline α-Gal A activity (% WT): 66.3 ± 3.7 % WT
- Baseline α-Gal A activity: 29615 ± 1640 nmol/mg/h
- 10 μM migalastat α-Gal A activity: 37475 ± 2540 nmol/mg/h
- 10 μM migalastat α-Gal A activity (% WT): 83 ± 4.4 % WT

B5: F337V (protein)
chain: MQLRNPELHLGCALALRFLALVSWDIPGARALDNGLARTPTMGWLHWERFMCNLDCQEEPDSCISEKLFMEMAELMVSEGWKDAGYEYLCIDDCWMAPQRDSEGRLQADPQRFPHGIRQLANYVHSKGLKLGIYADVGNKTCAGFPGSFGYYDIDAQTFADWGVDLLKFDGCYCDSLENLADGYKHMSLALNRTGRSIVYSCEWPLYMWPFQKPNYTEIRQYCNHWRNFADIDDSWKSIKSILDWTSFNQERIVDVAGPGGWNDPDMLVIGNFGLSWNQQVTQMALWAIMAAPLFMSNDLRHISPQAKALLQDKDVIAINQDPLGKQGYQLRQGDNVEVWERPLSGLAWAVAMINRQEIGGPRSYTIAVASLGKGVACNPACFITQLLPVKRKLGFYEWTSRLRSHINPTGTVLLQLENTMQMSLKDLL
- Absolute increase (% WT): 31.1 % WT
- Relative increase: 1.4
- Baseline α-Gal A activity (% WT): 65.9 ± 4.1 % WT
- Baseline α-Gal A activity: 29582 ± 2747 nmol/mg/h
- 10 μM migalastat α-Gal A activity: 42718 ± 2776 nmol/mg/h
- 10 μM migalastat α-Gal A activity (% WT): 97 ± 4.6 % WT

B6: F337Y (protein)
chain: MQLRNPELHLGCALALRFLALVSWDIPGARALDNGLARTPTMGWLHWERFMCNLDCQEEPDSCISEKLFMEMAELMVSEGWKDAGYEYLCIDDCWMAPQRDSEGRLQADPQRFPHGIRQLANYVHSKGLKLGIYADVGNKTCAGFPGSFGYYDIDAQTFADWGVDLLKFDGCYCDSLENLADGYKHMSLALNRTGRSIVYSCEWPLYMWPFQKPNYTEIRQYCNHWRNFADIDDSWKSIKSILDWTSFNQERIVDVAGPGGWNDPDMLVIGNFGLSWNQQVTQMALWAIMAAPLFMSNDLRHISPQAKALLQDKDVIAINQDPLGKQGYQLRQGDNYEVWERPLSGLAWAVAMINRQEIGGPRSYTIAVASLGKGVACNPACFITQLLPVKRKLGFYEWTSRLRSHINPTGTVLLQLENTMQMSLKDLL
- Absolute increase (% WT): 21.6 % WT
- Relative increase: 1.4
- Baseline α-Gal A activity (% WT): 52.3 ± 4.2 % WT
- Baseline α-Gal A activity: 21577 ± 1930 nmol/mg/h
- 10 μM migalastat α-Gal A activity: 30991 ± 2695 nmol/mg/h
- 10 μM migalastat α-Gal A activity (% WT): 73.9 ± 3.2 % WT

B7: N336T (protein)
chain: MQLRNPELHLGCALALRFLALVSWDIPGARALDNGLARTPTMGWLHWERFMCNLDCQEEPDSCISEKLFMEMAELMVSEGWKDAGYEYLCIDDCWMAPQRDSEGRLQADPQRFPHGIRQLANYVHSKGLKLGIYADVGNKTCAGFPGSFGYYDIDAQTFADWGVDLLKFDGCYCDSLENLADGYKHMSLALNRTGRSIVYSCEWPLYMWPFQKPNYTEIRQYCNHWRNFADIDDSWKSIKSILDWTSFNQERIVDVAGPGGWNDPDMLVIGNFGLSWNQQVTQMALWAIMAAPLFMSNDLRHISPQAKALLQDKDVIAINQDPLGKQGYQLRQGDTFEVWERPLSGLAWAVAMINRQEIGGPRSYTIAVASLGKGVACNPACFITQLLPVKRKLGFYEWTSRLRSHINPTGTVLLQLENTMQMSLKDLL
- Absolute increase (% WT): 29.7 % WT
- Relative increase: 2.0
- Baseline α-Gal A activity (% WT): 28.9 ± 1.3 % WT
- Baseline α-Gal A activity: 12743 ± 709 nmol/mg/h
- 10 μM migalastat α-Gal A activity: 25898 ± 1374 nmol/mg/h
- 10 μM migalastat α-Gal A activity (% WT): 58.6 ± 2.3 % WT

B8: F337L (protein)
chain: MQLRNPELHLGCALALRFLALVSWDIPGARALDNGLARTPTMGWLHWERFMCNLDCQEEPDSCISEKLFMEMAELMVSEGWKDAGYEYLCIDDCWMAPQRDSEGRLQADPQRFPHGIRQLANYVHSKGLKLGIYADVGNKTCAGFPGSFGYYDIDAQTFADWGVDLLKFDGCYCDSLENLADGYKHMSLALNRTGRSIVYSCEWPLYMWPFQKPNYTEIRQYCNHWRNFADIDDSWKSIKSILDWTSFNQERIVDVAGPGGWNDPDMLVIGNFGLSWNQQVTQMALWAIMAAPLFMSNDLRHISPQAKALLQDKDVIAINQDPLGKQGYQLRQGDNLEVWERPLSGLAWAVAMINRQEIGGPRSYTIAVASLGKGVACNPACFITQLLPVKRKLGFYEWTSRLRSHINPTGTVLLQLENTMQMSLKDLL
- Absolute increase (% WT): 20.8 % WT
- Relative increase: 1.4
- Baseline α-Gal A activity (% WT): 57.8 ± 4.8 % WT
- Baseline α-Gal A activity: 23197 ± 2254 nmol/mg/h
- 10 μM migalastat α-Gal A activity: 31963 ± 2641 nmol/mg/h
- 10 μM migalastat α-Gal A activity (% WT): 78.6 ± 3.1 % WT
